Measured values reported in publication PMC9410886.

Target: mouse mammary tumor virus (MMTV) integrase (IN) (mouse mammary tumor virus (MMTV))
Experiment: cryo-EM structure; octameric MMTV STC intasome: IN assembled on branched DNA, purified on Superdex 200 in 25 mM Tris-HCl pH 7.4, 200 mM NaCl, 2 mM DTT, 25 uM ZnCl2, 10 mM CaCl2; C2 symmetry, 3.5 Å global resolution

Substance: mouse mammary tumor virus (MMTV) integrase (IN) (enzyme)
- stoichiometry N: 8
